Results: publication doi:10.1101/2020.07.16.20155853

Target: SARS-CoV-2 Cys-like protease (Mpro) (SARS-CoV-2 (Wuhan-Hu-1 strain))
Assay: SEC

With “SARS-CoV-2 Cys-like protease (Mpro) (enzyme)” the stoichiometry N was 2.
